Experimental findings from PMC3115060, “Structural Analysis of a Novel Class of R–M Controller Proteins: C.Csp231I from Citrobacter sp. RFL231” (Journal of Molecular Biology, 2011) are described below.

The data set deals with the molecule itself. Description: AUC; sedimentation velocity, 10-80 uM protein, 50 mM Tris-HCl pH 8.0, 100 mM NaCl, 1 mM Na2-EDTA, 20 C, 40,000 rpm, 280 nm; self-association (dimer).

B1: C.Csp231I controller protein (natural protein, Citrobacter sp. RFL231, UniProt Q32WH4 1-98, looked up)
chain: MLIRRLKDARLRAGISQEKLGVLAGIDEASASARMNQYEKGKHAPDFEMANRLAKVLKIPVSYLYTPEDDLAQIILTWNELNEQERKRINFYIRKKAK
notes: C.Csp231I controller protein of the Csp231I restriction-modification system, Citrobacter sp; RFL231; native untagged protein, 98 amino acids (Mr 11,360), expressed from the csp231IC gene; Homodimer in solution and in both crystal forms; also called C-protein; source: E. coli BL21(DE3) Gold, pET-11a, purified (HiTrap heparin, HiTrap SP, Sephacryl S-100 HR)
By stoichiometry N is commonly meant the number of molecules, sites or subunits per partner or assembly. As to B1, the “stoichiometry N” value amounted to 2.
